In test [1] the target is T1, soluble recombinant human CD39 protein (Homo sapiens, UniProt P49961).
T1 construct: made in house; host or cells: CHO cells
T1 sequence (P49961 with tags, fused parts or gaps): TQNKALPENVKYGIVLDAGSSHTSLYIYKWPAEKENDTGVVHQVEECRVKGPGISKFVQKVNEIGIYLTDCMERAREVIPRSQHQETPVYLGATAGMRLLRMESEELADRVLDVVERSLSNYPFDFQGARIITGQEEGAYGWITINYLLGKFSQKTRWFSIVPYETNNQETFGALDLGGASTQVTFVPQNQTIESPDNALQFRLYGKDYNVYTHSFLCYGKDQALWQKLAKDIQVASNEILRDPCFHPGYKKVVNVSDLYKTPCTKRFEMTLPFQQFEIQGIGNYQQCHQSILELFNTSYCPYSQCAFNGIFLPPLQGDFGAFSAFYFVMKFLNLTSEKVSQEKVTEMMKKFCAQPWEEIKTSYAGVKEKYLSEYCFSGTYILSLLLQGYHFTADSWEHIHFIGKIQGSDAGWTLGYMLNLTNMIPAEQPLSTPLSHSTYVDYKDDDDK
Briefly: Inhibition of the enzymatic activity of soluble CD39 (Cell Titer Glo). It counts as biochemical. The note with it: result in words. As for the experimental part:
The inhibition by antibodies of the enzymatic activity of soluble CD39 protein produced was evaluated using Cell Titer Glo™ (Promega, reference G7571) that allows assessment of ATP hydrolysis through use of a reagent that generates a luminescent signal proportional to the amount of ATP present. In this way, inhibition of the soluble-CD39-meidatd ATP hydrolysis can be assessed. Briefly, dose ranges of anti-CD39 antibodies from 100 μg/ml to 6×10^−3 μg/ml were incubated with 400 ng/ml of soluble recombinant human CD39 protein having the amino acid sequence described in the Methods section (SEQ ID NO: 39), for 1 h at 37° C. 20 μM ATP was added to the plates for 30 additional minutes at 37° C. before addition of CTG (Cell Titer Glo) reagent. Emitted light was quantified using an Enspire™ luminometer after a short incubation period of 5 min in the dark. Anti-CD39 antibody efficacy was determined by comparing emitted light in presence of antibody with ATP alone (maximal light emission) and ATP together with soluble CD39 protein (minimal light emission).
(In general: Cellular ATP, detected with luciferase, serves as a proxy for viable cell number.)

Test [2] deals with CD39 mutants (Table 1) expressed in Hek-293T cells. Briefly: Epitope mapping: flow cytometry binding to CD39 mutants in Hek-293T cells. The arrangement: species or system human. As for the experimental part: CD39 mutants were generated by PCR. The sequences amplified were run on agarose gel and purified using the Macherey Nagel PCR Clean-Up Gel Extraction kit (reference 740609). The purified PCR products generated for each mutant were then ligated into an expression vector, with the ClonTech InFusion system. The vectors containing the mutated sequences were prepared as Miniprep and sequenced. After sequencing, the vectors containing the mutated sequences were prepared as Midiprep using the Promega PureYield™ Plasmid Midiprep System. HEK293T cells were grown in DMEM medium (Invitrogen), transfected with vectors using Invitrogen's Lipofectamine 2000 and incubated at 37° C. in a […] incubator for 48 hours prior to testing for transgene expression. The targeted amino acid mutations in the table 1 below are shown using numbering of SEQ ID NO: 1.
In order to define the epitopes of anti-CD39 antibodies, we designed CD39 mutants defined by substitutions of amino acids exposed at the molecular surface over the surface of CD39.
Mutant 5 contains amino acid substitutions at residues Q96, N99, E143 and R147.
Mutants were transfected in Hek-293T cells, as shown in the table 1, using numbering of SEQ ID NO: 1. […] Mutant 19 includes substitutions at residues R138, M139 and E142.
Mutants were transfected in Hek-293T cells, as shown in the table 1, using numbering of SEQ ID NO: 1. […]

B1: I-399: anti-CD39 antibody, VH SEQ ID NO: 27, VL SEQ ID NO: 28 (antibody, listed as Mus musculus, V domains shown)
VH: PVQLQQPGAEVVMPGASVKLSCKASGYTFTSFWMNWMRQRPGQGLEWIGEIDPSDFYTNSNQRFKGKATLTVDKSSSTAYMQLSSLTSEDSAVYFCARGDFGWYFDVWGTGTSVTVSS
VL: EIVLTQSPTTMTSSPGEKITFTCSASSSINSNYLHWYQQKPGFSPKLLIYRTSNLASGVPTRFSGSGSGTSYSLTIGTMEAEDVATYYCQQGSSLPRTFGGGTKLEIK
Turning to B1, the “inhibition of the enzymatic (ATPase) activity of soluble CD39 protein” value in test [1] is on record as “inhibition of soluble CD39”. The “binding to cells expressing mutant 11 of CD39” value in test [2] (mutant 11: N371K, L372K, E375A, K376G, V377A and insertion 377V) is recorded as “loss of binding”. Further, the “binding to the other CD39 mutants of Table 1” value in test [2] (remaining mutants of the 20 generated) is reported as “without loss of binding to any of the other 20 mutants”.

These data come from US20190218304A1, “POTENTIATING THE EFFECT OF ATP RELEASE” (INNATE PHARMA, priority 2017, published 2019).
